Experiments:
[1] = biological target: 80S ribosomes, P05388;P63244; assay: sedimentation with native ribosomes (80S fraction), immunoblot quantification; settings: chain shown with the change; HEK293 cells expressing Xpress-tagged G5845-1508 proteins; parent: est. 1.0; read off a plot
[2] = biological target: the molecule itself; assay: SEC-MALS; 250 ul of purified TPR-like domain at 1-3 mg/ml on Superdex 200 10/300; 20 mM Tris-HCl pH 6.8, 0.2 M NaCl, 5% glycerol, 1 mM DTT; 0.5 ml/min

other: G5845-1508 intensity 80S/S30 [1] | Binder | stoichiometry N [2]
0.46 | Xpress-G5_(845-1508)-WT, Q8TEQ6 D1019E (protein) ARSLLPLSTSLDHRSKEELHQDCLVLATAKHSRELNEDVSADVEERFHLGLFTDRATLYRMIDIEGKGHLENGHPELFHQLMLWKGDLKGVLQTAAERGELTDNLVAMAPAAGYHVWLWAVEAFAKQLCFQDQYVKAASHLLSIHKVYEAVELLKSNHFYREAIAIAKARLRPEEPVLKDLYLSWGTVLERDGHYAVAAKCYLGATCAYDAAKVLAKKGDAASLRTAAELAAIVGEDELSASLALRCAQELLLANNWVGAQEALQLHESLQGQRLVFCLLELLSRHLEEKQLSEGKSSSSYHTWNTGTEGPFVERVTAVWKSIFSLDTPEQYQEAFQKLQNIKYPSATNNTPAKQLLLHICHDLTLAVLSQQMASWDEAVQALLRAVVRSYDSGSFTIMQEVYSAFLPDGCDHLRDKLGDHQSPATPAFKSLEAFFLYGRLYEFWWSLSRPCPNSSVWVRAGHRTLSVEPSQQLDTASTEETDPETSQPEPNRPSELDLRLTEEGERMLSTFKELFSEKHASLQNSQRTVAEVQETLAEMIRQHQKSQLCKSTANGPDKNEPEVEAEQPLCSSQSQCKEEKNEPLSLPELTKRLTEANQRMAKFPESIKAWPFPDVLECCLVLLLIRSHFPGCLAQEMQQQAQELLQKYGNTKTYRRHCQTFCM | –
0.51 | Xpress-G5_(845-1508)-WT, Q8TEQ6 R1016C (protein) ARSLLPLSTSLDHRSKEELHQDCLVLATAKHSRELNEDVSADVEERFHLGLFTDRATLYRMIDIEGKGHLENGHPELFHQLMLWKGDLKGVLQTAAERGELTDNLVAMAPAAGYHVWLWAVEAFAKQLCFQDQYVKAASHLLSIHKVYEAVELLKSNHFYREAIAIAKARLCPEDPVLKDLYLSWGTVLERDGHYAVAAKCYLGATCAYDAAKVLAKKGDAASLRTAAELAAIVGEDELSASLALRCAQELLLANNWVGAQEALQLHESLQGQRLVFCLLELLSRHLEEKQLSEGKSSSSYHTWNTGTEGPFVERVTAVWKSIFSLDTPEQYQEAFQKLQNIKYPSATNNTPAKQLLLHICHDLTLAVLSQQMASWDEAVQALLRAVVRSYDSGSFTIMQEVYSAFLPDGCDHLRDKLGDHQSPATPAFKSLEAFFLYGRLYEFWWSLSRPCPNSSVWVRAGHRTLSVEPSQQLDTASTEETDPETSQPEPNRPSELDLRLTEEGERMLSTFKELFSEKHASLQNSQRTVAEVQETLAEMIRQHQKSQLCKSTANGPDKNEPEVEAEQPLCSSQSQCKEEKNEPLSLPELTKRLTEANQRMAKFPESIKAWPFPDVLECCLVLLLIRSHFPGCLAQEMQQQAQELLQKYGNTKTYRRHCQTFCM | –

Further lines, the binder ahead of its results:

Binder | other: G5845-1508 intensity 80S/S30 [1] | stoichiometry N [2]
Xpress-G5_(845-1508)-WT, Q8TEQ6 A951E (protein) ARSLLPLSTSLDHRSKEELHQDCLVLATAKHSRELNEDVSADVEERFHLGLFTDRATLYRMIDIEGKGHLENGHPELFHQLMLWKGDLKGVLQTAAERGELTDNLVEMAPAAGYHVWLWAVEAFAKQLCFQDQYVKAASHLLSIHKVYEAVELLKSNHFYREAIAIAKARLRPEDPVLKDLYLSWGTVLERDGHYAVAAKCYLGATCAYDAAKVLAKKGDAASLRTAAELAAIVGEDELSASLALRCAQELLLANNWVGAQEALQLHESLQGQRLVFCLLELLSRHLEEKQLSEGKSSSSYHTWNTGTEGPFVERVTAVWKSIFSLDTPEQYQEAFQKLQNIKYPSATNNTPAKQLLLHICHDLTLAVLSQQMASWDEAVQALLRAVVRSYDSGSFTIMQEVYSAFLPDGCDHLRDKLGDHQSPATPAFKSLEAFFLYGRLYEFWWSLSRPCPNSSVWVRAGHRTLSVEPSQQLDTASTEETDPETSQPEPNRPSELDLRLTEEGERMLSTFKELFSEKHASLQNSQRTVAEVQETLAEMIRQHQKSQLCKSTANGPDKNEPEVEAEQPLCSSQSQCKEEKNEPLSLPELTKRLTEANQRMAKFPESIKAWPFPDVLECCLVLLLIRSHFPGCLAQEMQQQAQELLQKYGNTKTYRRHCQTFCM | 0.48 | –
Gemin5 TPR-like dimerization domain R1016C (domain or fragment, human, UniProt Q8TEQ6 845-1097, looked up, Tag cut by PreScission protease; also called TPR-like R1016C; source: E. coli BL21-Rosetta (DE3) pLysS, purified (HisTrap, tag cleavage, SEC in 0.2 M NaCl); not shown: His6, N-terminal, cleaved; MBP, N-terminal, cleaved) ARSLLPLSTSLDHRSKEELHQDCLVLATAKHSRELNEDVSADVEERFHLGLFTDRATLYRMIDIEGKGHLENGHPELFHQLMLWKGDLKGVLQTAAERGELTDNLVAMAPAAGYHVWLWAVEAFAKQLCFQDQYVKAASHLLSIHKVYEAVELLKSNHFYREAIAIAKARLCPEDPVLKDLYLSWGTVLERDGHYAVAAKCYLGATCAYDAAKVLAKKGDAASLRTAAELAAIVGEDELSASLALRCAQELLL | – | 2
Gemin5 TPR-like dimerization domain D1019E (domain or fragment, human, UniProt Q8TEQ6 845-1097, looked up, Tag cut by PreScission protease; also called TPR-like D1019E; source: E. coli BL21-Rosetta (DE3) pLysS, purified (HisTrap, tag cleavage, SEC in 0.2 M NaCl); not shown: His6, N-terminal, cleaved; MBP, N-terminal, cleaved) ARSLLPLSTSLDHRSKEELHQDCLVLATAKHSRELNEDVSADVEERFHLGLFTDRATLYRMIDIEGKGHLENGHPELFHQLMLWKGDLKGVLQTAAERGELTDNLVAMAPAAGYHVWLWAVEAFAKQLCFQDQYVKAASHLLSIHKVYEAVELLKSNHFYREAIAIAKARLRPEEPVLKDLYLSWGTVLERDGHYAVAAKCYLGATCAYDAAKVLAKKGDAASLRTAAELAAIVGEDELSASLALRCAQELLL | – | 2

From publication PMC8989681, “Functional and structural deficiencies of Gemin5 variants associated with neurological disorders” (Life Science Alliance, 2022)
